Experimental data: paper PMC8244335 (Current Research in Structural Biology, 2019)
“And” between values parts separate entries of the source, which are not always exact repeats. Equal entries are not always repeated.

Target: the molecule itself
Experiment: AUC

B1: catalytically inactive S679A mutant of Escherichia coli (strain K12) LonA protease, full length (enzyme, E. coli (strain K12), UniProt P0A9M0 1-784, looked up)
chain: MNPERSERIEIPVLPLRDVVVYPHMVIPLFVGREKSIRCLEAAMDHDKKIMLVAQKEASTDEPGVNDLFTVGTVASILQMLKLPDGTVKVLVEGLQRARISALSDNGEHFSAKAEYLESPTIDEREQEVLVRTAISQFEGYIKLNKKIPPEVLTSLNSIDDPARLADTIAAHMPLKLADKQSVLEMSDVNERLEYLMAMMESEIDLLQVEKRIRNRVKKQMEKSQREYYLNEQMKAIQKELGEMDDAPDENEALKRKIDAAKMPKEAKEKAEAELQKLKMMSPMSAEATVVRGYIDWMVQVPWNARSKVKKDLRQAQEILDTDHYGLERVKDRILEYLAVQSRVNKIKGPILCLVGPPGVGKTSLGQSIAKATGRKYVRMALGGVRDEAEIRGHRRTYIGSMPGKLIQKMAKVGVKNPLFLLDEIDKMSSDMRGDPASALLEVLDPEQNVAFSDHYLEVDYDLSDVMFVATSNSMNIPAPLLDRMEVIRLSGYTEDEKLNIAKRHLLPKQIERNALKKGELTVDDSAIIGIIRYYTREAGVRGLEREISKLCRKAVKQLLLDKSLKHIEINGDNLHDYLGVQRFDYGRADNENRVGQVTGLAWTEVGGDLLTIETACVPGKGKLTYTGSLGEVMQESIQAALTVVRARAEKLGINPDFYEKRDIHVHVPEGATPKDGPAAGIAMCTALVSCLTGNPVRADVAMTGEITLRGQVLPIGGLKEKLLAAHRGGIKTVLIPFENKRDLEEIPDNVIADLDIHPVKRIEEVLTLALQNEPSGMQVVTAK
stoichiometry N: 12 and 6
